Measurements taken from US20020090651A1.

Target: Xenopus FGF receptor-1 (Xenopus laevis) (UniProt P22182)
Experiment: cell-based or functional assay

Sequence of UniProt P22182 (P22182 21-812): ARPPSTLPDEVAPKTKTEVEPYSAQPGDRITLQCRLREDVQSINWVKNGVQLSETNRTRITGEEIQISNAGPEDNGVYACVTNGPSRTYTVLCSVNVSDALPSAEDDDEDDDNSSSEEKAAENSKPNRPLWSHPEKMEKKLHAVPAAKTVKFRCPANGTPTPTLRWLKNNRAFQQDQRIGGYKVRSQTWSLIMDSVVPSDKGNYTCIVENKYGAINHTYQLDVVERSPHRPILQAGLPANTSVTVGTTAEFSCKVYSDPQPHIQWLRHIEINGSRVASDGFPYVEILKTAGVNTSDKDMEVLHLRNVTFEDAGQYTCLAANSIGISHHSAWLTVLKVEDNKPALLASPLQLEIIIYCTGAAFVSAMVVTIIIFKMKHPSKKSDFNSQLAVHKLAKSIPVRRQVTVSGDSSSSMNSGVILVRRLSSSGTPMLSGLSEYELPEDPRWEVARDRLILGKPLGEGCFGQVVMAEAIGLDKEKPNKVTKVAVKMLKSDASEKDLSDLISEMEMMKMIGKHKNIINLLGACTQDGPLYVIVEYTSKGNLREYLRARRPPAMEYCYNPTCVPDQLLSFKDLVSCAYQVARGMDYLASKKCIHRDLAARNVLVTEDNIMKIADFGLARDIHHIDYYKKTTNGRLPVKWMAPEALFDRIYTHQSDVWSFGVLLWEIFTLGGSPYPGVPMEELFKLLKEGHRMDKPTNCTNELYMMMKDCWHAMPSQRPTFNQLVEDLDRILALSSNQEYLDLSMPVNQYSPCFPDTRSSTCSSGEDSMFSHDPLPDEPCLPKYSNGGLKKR

Substance	Ca2+ release (efflux) of Xenopus oocytes co-injected with ligand and FGF receptor mRNAs [fold]
FRL-2 protein (ligand)	2
Xenopus bFGF (basic fibroblast growth factor), without a signal sequence (from UniProt P12226 1-155) (ligand)	3
